Assay results published in the supplement of paper PMC10567573.

B1: DCAF4 (parent)
chain: TTKCVRQYEGHVNEYAYLPLHVHE

Variants of: B1
Assay: protein stability index of a GFP-peptide fusion (GPS, HEK-293T) (PSI 1-6); higher = more stable
Details: c terminus: a fixed tail appended
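Further: lentivirally expressed fusions sorted by FACS into six bins by GFP to DsRed ratio, PSI derived from sequencing read proportions per bin multiplied by bin number.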

Variant	protein stability index
TTKCVRQYEGHVNEYAYLWLHVHE	2.57
TTKCVRQYEGHVNEYAYLGLHVHE	2.26
TTKCVRQYEGHVNEYAYLDLHVHE	3.02
TTKCVRQYEGHVNEYAYLHLHVHE	1.96
TTKCVRQYEGHTNEYAYLPLHVHE	2.85
TTKCVRQYEGHQNEYAYLPLHVHE	2.58
TTKCVRQYEGHSNEYAYLPLHVHE	2.78
TTKCVRQYEGHLNEYAYLPLHVHE	2.76
TTKCVQQYEGHVNEYAYLPLHVHE	3.31
TTKCVCQYEGHVNEYAYLPLHVHE	2.53
TTKCVIQYEGHVNEYAYLPLHVHE	2.11
TTKCVNQYEGHVNEYAYLPLHVHE	2.95
NTKCVRQYEGHVNEYAYLPLHVHE	2.4
ETKCVRQYEGHVNEYAYLPLHVHE	3.14
CTKCVRQYEGHVNEYAYLPLHVHE	1.9
HTKCVRQYEGHVNEYAYLPLHVHE	2.65
YTKCVRQYEGHVNEYAYLPLHVHE	1.69
PTKCVRQYEGHVNEYAYLPLHVHE	2.48
TTKCVRQYEGHVNEYAYLPLYVHE	1.9
TTKCVRQYEGHVNEYAYLPLEVHE	3.27
TTKCVRQYEGHVNEYAYLPLQVHE	2.66
TTKCVRQYEGHVNEYAYLPLIVHE	2.12
TTKCVRQYEGHVNEYAYLPLAVHE	2.58
TTKCVRQYEGHVNEYAYLPLNVHE	3.33

Variant	protein stability index
TTKCVRQYEGHVNEYAYLPYHVHE	2.32
TTKCVRQYEGHVNEYAYLPRHVHE	3.21
TTKCVRQYEGHVNEYAYLPPHVHE	3.31
TTKCVRQYEGHVNEYAYLPWHVHE	2.33
TTKCVRQYEGHVNEYAYLPEHVHE	3.53
TTKCVRQYEGHVNEYAYLPGHVHE	2.41
TTKCVRQYEGHVNEYAYLPLHFHE	2.01
TTKCVRQYEGHVNEYAYLPLHTHE	3.12
TTKCVRQYEGHVNEYAYLPLHHHE	2.96
TTKCVRQYEGHVNEYAYLPLHKHE	3.27
TTKCVRQYEGHVNEYAYLPLHLHE	2.54
TTKCVRQYEGHVNEYAYLPLHCHE	2.54
TTKCVRQYEGTVNEYAYLPLHVHE	3.25
TTKCVRQYEGFVNEYAYLPLHVHE	1.88
TTKCVRQYEGSVNEYAYLPLHVHE	2.6
TTKCVRQYEGDVNEYAYLPLHVHE	2.88
TTKCVRQYEGRVNEYAYLPLHVHE	2.44
TTKCVRQYEGIVNEYAYLPLHVHE	2.75
TTKCVRQYEGEVNEYAYLPLHVHE	3.17
TTKCVRQYEGGVNEYAYLPLHVHE	2.38
TTKDVRQYEGHVNEYAYLPLHVHE	3.76
TTKMVRQYEGHVNEYAYLPLHVHE	3.45
TTKKVRQYEGHVNEYAYLPLHVHE	2.83
TTKSVRQYEGHVNEYAYLPLHVHE	3.25

Variant	protein stability index
TTKAVRQYEGHVNEYAYLPLHVHE	3.14
TTKFVRQYEGHVNEYAYLPLHVHE	2.25
TTKCVRQYLGHVNEYAYLPLHVHE	2.12
TTKCVRQYEGHVNKYAYLPLHVHE	2.64
TTKCVRQYEGHVNAYAYLPLHVHE	1.85
TTKCVRQYEGHVNPYAYLPLHVHE	2.57
TTKCVRQYEGHVNEYAILPLHVHE	2.86
TTKCVRQYEGHVNEYASLPLHVHE	3.24
TTKCVRQYEGHVNEYAWLPLHVHE	2.69
TTKCIRQYEGHVNEYAYLPLHVHE	2.17
TTKCNRQYEGHVNEYAYLPLHVHE	2.27
TTKCVRQMEGHVNEYAYLPLHVHE	2.89
TTKCVRQREGHVNEYAYLPLHVHE	2.94
TTKCVRQDEGHVNEYAYLPLHVHE	3.75
TTKCVRQYEGHVWEYAYLPLHVHE	1.87
TTKCVRQYEGHVSEYAYLPLHVHE	2.78
TTMCVRQYEGHVNEYAYLPLHVHE	2.07
TTFCVRQYEGHVNEYAYLPLHVHE	1.55
TTGCVRQYEGHVNEYAYLPLHVHE	2.89
TTVCVRQYEGHVNEYAYLPLHVHE	2.02
TTKCVRQYEGHVNEYAYLPLHVCE	2.52
TTKCVRQYEGHVNEYAYLPLHVSE	2.73
TTKCVRQYEGHVNEYAYLPLHVME	2.12
TTKCVRQYEGHVNEWAYLPLHVHE	2.12

Variant	protein stability index
TTKCVRQYEGHVNETAYLPLHVHE	2.59
TTKCVRQYEGHVNEIAYLPLHVHE	3.09
TTKCVRQYEGHVNELAYLPLHVHE	2.97
TVKCVRQYEGHVNEYAYLPLHVHE	2.46
TSKCVRQYEGHVNEYAYLPLHVHE	2.74
TTKCVRQYEGHVNEYAYLPLHVHN	2.46
TTKCVRQYEGHVNEYAYRPLHVHE	2.89
TTKCVRQYEGHVNEYAYWPLHVHE	2.28
TTKCVRQYEGHVNEYSYLPLHVHE	2.45
TTKCVRQYEGHVNEYIYLPLHVHE	2.2
TTKCVRQYEGHVNEYKYLPLHVHE	2.71
TTKCVRQYEGHVNEYEYLPLHVHE	3.31
TTKCVRQYEGHVNEYYYLPLHVHE	1.87
TTKCVRAYEGHVNEYAYLPLHVHE	2.52
TTKCVRTYEGHVNEYAYLPLHVHE	2.97
TTKCVRCYEGHVNEYAYLPLHVHE	2.15
TTKCVREYEGHVNEYAYLPLHVHE	2.96
TTKCVRLYEGHVNEYAYLPLHVHE	2.28
TTKCVRQYETHVNEYAYLPLHVHE	2.57
TTKCVRQYEWHVNEYAYLPLHVHE	1.65
TTKCVRQYENHVNEYAYLPLHVHE	2.11
TTKCVRQYEKHVNEYAYLPLHVHE	3.44
